Patent publication US20260347486 (published 2026)
Values belong to the binder of their own block, whether it stands above or below them.

Molecular target: IL-18BP (human)
Assay: BLI

binding result: no binding
B1: IL18R_tanVHHβ15α2 (antibody, V domains shown)
V domain 1: DVQLQESGGGLVQPGGSLRLSCAASGRFFTINAMGWYRQTPGKQRELVAAITSDGSTTYQDSVKGRFTISRDNANRTANLYMNSLKSEDTAVYYCNADGRFNDNGYVKNFNIWGQGTQVTVSS
V domain 2: DVQLQESGGGLVQAGGSLRLSCAASGFTLLDSYDIGWFRQAPGKKREEVSCISSSGGKSTYYADSVKGRFTISRDNANNTVYLQMNSLKPEDTAVYYCAADGAEGFWSCQSGGYDYWGQGTQVTVSS

binding result: no binding
B2: IL18R_VHHα2β15 (antibody, V domains shown)
V domain 1: B1 V domain 2
V domain 2: B1 V domain 1
